system: MS2 coat protein; test: apparent KD of MS2 coat protein; higher = weaker reporter binding; details: Eterna round: R107; input ligand: arginine 13.2 mM
Summary of the method: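 Apparent KD was obtained for each design as the median of normalised binding-curve fits over its clusters. RNA switches transcribed on-chip from Illumina sequencing clusters were titrated with SNAP-549-labelled MS2 coat protein (twofold steps, 0.7 or 1.5 nM to 3 µM) in 100 mM Tris-HCl pH 7.5, 80 mM KCl, 4 mM MgCl2, without or with constant ligand.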

Sequence	apparent KD of MS2 coat protein
CGGGUUAGGGCGGCCGCCACUGUGGCUACGGUACAUGAGGAUCACCCAUGUUUGUGGUUGAUCUACAGGACCGGGCCCUGACACG [Geusrean]	440 nM

same assay, conditions: Eterna round: R107; input ligand: none

Sequence	apparent KD of MS2 coat protein
GGGAGAUGAAUAGAAUGAGAUGACACAGAAGGAGCGUGAAUUAACACAGGUAGGUCGCUGACAACAUGAGGAUCACCCAUGUAUU [Same State Arginine A GF3]	15.2 nM
CGCAACCAACAUGAGGAUCACCCAUGUGAAGGAGCGCCGAAGAAGGCAGGUAGGUCGCACAUGAAUAAAUCAUGUAAAAGGUUGC [MAT - Exclusion Arginine A - Mod of Eli - D19]	51.4 nM
UGUAUGUGAUUUGAUACCAGACCAGCUGGUGGUGCAUGAGGAUCACCCAUGCAGGUUUGGGUCCCUUGGCAGCAAAUCGCAUACU [SS Theo B #24 Ms17]	119 nM
GCAACAUGAGGAUCACCCAUGUUUACUGAAGGAGCGAGACAGAACUCAGGUAGGUCGCAGACGGCGGAAUCGCCGACGACAUGGG [Exclusion Arginine A GF24]	22.4 nM
CAGGUUAGGGCGGCCGCCACUGUGGCUACGGUACAUGAGGAUCACCCAUGUUUGUGGUUGAUCUACAGGACCGGGCCCUGACACG [Matidier]	236 nM
UGUAUGUGAUUUGAUACCAGACCAGCUGGUGUUACAAGAGGAUCACCCUUGUAGGUUUGGGUCCCUUGGCAGCAAAUCGCAUACU [SS Theo B #24 Ms4]	136 nM
UUAAUCAAUAUAGAAAACUAUAUUGCAGAAGGAGCGUGAUAAAACACAGGUAGGUCGCUGAAGGGAACAUGAGGAUCACCCAUGU [AstrosSSArgA#5]	23.4 nM
ACGAACGCACCUGAGGAACACCCAGGUGAUACCAGCCUGGAAACAGGCCCUUGGCAGCACCUAAAAUAAAGGUAACGUUCGAAUA [TheoAX8 #MicroSwitchBubble #AlternativeMS2]	126 nM
ACAUGAGGAUCACCCAUGUAUGAUGUUCCUCGAGGACCGGUACGGCCGCCACUCGAACGAGUGGCGCGCGCGCGCGCGCGCGCGC [aUa]	16.5 nM
AAGUGGCACGGAAGGAGCGAGUUUACCUAGAUAACAUGAGGAUCACCCAUGUAUAAUGGGACUCAGGUAGGUCGCCGCUGUCACU [#30 Same State - Arginine B]	41.5 nM
UAUCCACAUGAGGAUCACCCAUGUAGGGAAGGAGCGGUGAUUUCACCAGGUAGGUCGCCUUGCUCAGGGUUGCCGGUGGAAUCGU [Exclusion - Arginine A (Freestyle 34)]	12.7 nM
GCCUAGCAGCGAAGGAGCGAGGUAAAUAAAUAAAUAAAUAACAAGAGGAUCACCCUUGUUCCUCAGGUAGGUCGCGCUGCUAGGC [SSAB Alternative Aptamer #1 NP+V+V2]	17.5 nM
UUGUUGUUUGGAAGGAGCGUGGAUGAGUGAGAACAUGAGGAUCACCCAUGUUGUAUGAUACCGCAGGUAGGUCGCCGGGUGGUGG [11.aB]	18.1 nM
CCUAACCGAUCGGCCGCCACUGACCGGUACCUCUUCGAAACCCGCCACAUGAGGAUCACCCAUGUCAGGACCGGGAUUGCACAGG [Inxeus]	17.2 nM
UGUAUGGACUGAAGGAGCGGGUAAUAAACCUGAGGAUCACCCAGGUAAUAGGCGAAAGCCACCCAGGUAGGUCGCAGUCCAUACU	14.1 nM
UAUCCACAUGAGGAUCACCCAUGUUAGGAAGGAGCGGUGGAUGCACCAGGUAGGUCGCCUAGCUGAGGACUGUCGGUGGAUUCGU [Exclusion - Arginine A (Freestyle 21)]	86.5 nM
CGGGUUAGGGCGGCCGCCACUGUGGCUACGGUACAUGAGGAUCACCCAUGUUUGUGGUUGAUCUACAGGACCGGGCCCUGACACG [Geusrean]	102 nM

same assay, conditions: Eterna round: R107; input ligand: theophylline 20 uM

Sequence	apparent KD of MS2 coat protein
GGGAGAUGAAUAGAAUGAGAUGACACAGAAGGAGCGUGAAUUAACACAGGUAGGUCGCUGACAACAUGAGGAUCACCCAUGUAUU [Same State Arginine A GF3]	21.3 nM
AGUAGACACGCGGCCGCCACUUGAGGAUCACCCAGGUGGUGUGUACUUGAAAACAAGUGCACAUCAAGGACCGGGCGUGUCUACA [Omei Tryp B SS D v2]	17.1 nM
CGCAACCAACAUGAGGAUCACCCAUGUGAAGGAGCGCCGAAGAAGGCAGGUAGGUCGCACAUGAAUAAAUCAUGUAAAAGGUUGC [MAT - Exclusion Arginine A - Mod of Eli - D19]	64.5 nM
AUAUAUACAUGAGGAUCACCCAUGUUAUUACGAGGACCGGUACGGCCGCCACUCGAUAGAGUAGAAGUAAAUUUUAAUUCAUGUA [JR_SSTryptoA_Sub007]	15.7 nM
UGUAUGUGAUUUGAUACCAGACCAGCUGGUGGUGCAUGAGGAUCACCCAUGCAGGUUUGGGUCCCUUGGCAGCAAAUCGCAUACU [SS Theo B #24 Ms17]	135 nM
AGCGGAACGGAAGGGUCCCAAAAUUGUGAUACCAGCCUUGAAUCCGGCCCUUGGCAGCACAUGAGGAUCACCCAUGUACUGCGAU [Laanor]	19.2 nM
GUACAUGAGGAUCACCCAUGUGGUAGGGAUACCAGCCAGAAGAAAGGCCCUUGGCAGCUUGUAUUUAGUGUGGGUUUGUUUGUUC [Exclusion - Theophylline A]	40.3 nM
GCAACAUGAGGAUCACCCAUGUUUACUGAAGGAGCGAGACAGAACUCAGGUAGGUCGCAGACGGCGGAAUCGCCGACGACAUGGG [Exclusion Arginine A GF24]	33.5 nM
AGAUUCGACACGGCCGCCACUCGUGACGGAUUUCCGAGUGUCGAACAUGAGGAUCACCCAUGUCCGAGGACCGGGUGUUGAGUCU [XTryp B #12]	43.8 nM
ACAUGAGGAUCACCCAUGUUCCUCGCCGAUACCAGUGAAGAAGAACGCCCUUGGCAGCGGAAAGAAUAUUUUGGAGAUGAGGUAU [6.W]	219 nM
CAGGUUAGGGCGGCCGCCACUGUGGCUACGGUACAUGAGGAUCACCCAUGUUUGUGGUUGAUCUACAGGACCGGGCCCUGACACG [Matidier]	145 nM
UGUAUGUGAUUUGAUACCAGACCAGCUGGUGUUACAAGAGGAUCACCCUUGUAGGUUUGGGUCCCUUGGCAGCAAAUCGCAUACU [SS Theo B #24 Ms4]	135 nM
UGUAACAUGAGGAUCACCCAUGUGAGUGAUACCAGAUUAGUAGUAGUCCCUUGGCAGCACAUUGGGCGAGUGUAUAGUCUAUGCG [Same State - Theophylline A (Freestyle 11)]	219 nM
GCAAUACAUGAGGAUCACCCAUGUGCAGAUACCAGAGGUGCGUGCCUCCCUUGGCAGCUGCGACGCUCUGGAAGCUUGUGUGUCU [Exclusion Theophylline A GF27]	26.2 nM
UUAAUCAAUAUAGAAAACUAUAUUGCAGAAGGAGCGUGAUAAAACACAGGUAGGUCGCUGAAGGGAACAUGAGGAUCACCCAUGU [AstrosSSArgA#5]	32.5 nM
ACGAACGCACCUGAGGAACACCCAGGUGAUACCAGCCUGGAAACAGGCCCUUGGCAGCACCUAAAAUAAAGGUAACGUUCGAAUA [TheoAX8 #MicroSwitchBubble #AlternativeMS2]	231 nM
ACAUGAGGAUCACCCAUGUAUGAUGUUCCUCGAGGACCGGUACGGCCGCCACUCGAACGAGUGGCGCGCGCGCGCGCGCGCGCGC [aUa]	35.1 nM
AAUACAGCUACGGCCGCCACUUUAACUUGGUAUGGGUCCUUCACAAACAUGAGGAUCACCCAUGUAAGGACCGGGUAGCCUUGUU [theeternabot_exclusion_MS2_Trp_B_35]	28.4 nM
AAGUGGCACGGAAGGAGCGAGUUUACCUAGAUAACAUGAGGAUCACCCAUGUAUAAUGGGACUCAGGUAGGUCGCCGCUGUCACU [#30 Same State - Arginine B]	58.3 nM

Reference: the supplement of paper PMC9170038
